Blank lines part the entries; values can stand above or below the molecule they belong to.
Columns and labels:
[1] = target: Alexa Fluor 488-labeled OmpT (E. coli) (UniProt P09169); assay: MST
[2] = target: T1, SurA WT (E. coli, UniProt P0ABZ6 21-428); assay: MST
T1 sequence (looked up): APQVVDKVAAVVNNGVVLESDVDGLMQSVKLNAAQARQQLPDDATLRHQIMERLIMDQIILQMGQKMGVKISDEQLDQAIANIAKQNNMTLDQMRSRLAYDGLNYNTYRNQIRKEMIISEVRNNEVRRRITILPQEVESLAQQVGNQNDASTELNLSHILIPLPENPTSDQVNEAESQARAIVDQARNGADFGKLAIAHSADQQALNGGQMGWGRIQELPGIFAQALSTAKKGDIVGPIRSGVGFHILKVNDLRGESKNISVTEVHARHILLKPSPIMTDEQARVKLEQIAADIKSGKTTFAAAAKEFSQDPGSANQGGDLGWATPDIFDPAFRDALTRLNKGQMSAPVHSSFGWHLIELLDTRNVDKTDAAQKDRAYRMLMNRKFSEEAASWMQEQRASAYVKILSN

Kd [1]: 9.3 µM
Molecule: SurA WT (from UniProt P0ABZ6 21-428) (natural protein)

Kd [2]: 1.8 ± 0.1 µM
B1: Alexa Fluor 488-labeled tOmpA (domain or fragment)
chain: APKDNTWYTGAKLGWSQYHDTGFINNNGPTHENQLGAGAFGGYQVNPYVGFEMGYDWLGRMPYKGSVENGAYKAQGVQLTAKLGYPITDDLDIYTRLGGMVWRADTKSNVYGKNHDTGVSPVFAGGVEYAITPEIATRLEYQWTNNIGDAHTIGTRPDNGMLSLGVSYRFG
modifications: Alexa Fluor 488 C5 maleimide on the N-terminal Cys

Source: publication PMC7618261 (Journal of molecular biology, 2019)
